# According to US20240270846A1 (published 2024):
# Molecular target: T1, CD3 epsilon homodimer protein (UniProt P07766 23-126)
# T1 construct: Construct of the homodimer protein is not described; also called CD3 (CD3 epsilon)
# Assay: SPR (Biacore T200), CD3 epsilon homodimer on CM4 chip, one-arm antibody as analyte; ratio to unaltered CE115HA000;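 also: surface plasmon resonance run at 25 °C with HBS-EP+ as running buffer, CD3 epsilon homodimer attached by amine coupling, antibody passed over as analyte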
# T1 sequence (P07766 23-126): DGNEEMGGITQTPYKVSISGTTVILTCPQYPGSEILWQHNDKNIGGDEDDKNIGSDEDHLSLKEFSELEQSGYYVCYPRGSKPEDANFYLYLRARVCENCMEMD
row,Binder,KD ratio (KD value of CE115HA000/KD value of the altered form)
1,"CE115HA000 V95D one-arm antibody (antibody, human IgG1, kappa, L234A L235A, N297A, name in Kabat numbering, one-arm antibody) heavy: QVQLVESGGGVVQPGRSLRLSCAASGFTFSNAWMHWVRQAPGKGLEWVAQIKAKSNNYATYYAESVKGRFTISRDDSKNSLYLQMNSLKTEDTAVYYCRYDHYGAYYGVDAWGQGTTVTVSSASTKGPSVFPLAPSSKSTSGGTAALGCLVKDYFPEPVTVSWNSGALTSGVHTFPAVLQSSGLYSLSSVVTVPSSSLGTQTYICNVNHKPSNTKVDKKVEPKSCDKTHTCPPCPAPEAAGGPSVFLFPPKPKDTLMISRTPEVTCVVVDVSHEDPEVKFNWYVDGVEVHNAKTKPREEQYASTYRVVSVLTVLHQDWLNGKEYKCKVSNKALPAPIEKTISKAKGQPREPQVYTLPPSRCELTKNQVSLSCAVKGFYPSDIAVEWESNGQPENNYKTTPPVLDSDGSFFLVSKLTVDKSRWQQGNVFSCSVMHEALHNHYTQKSLSLSPDYKDDDDK EPKSSDKTHTCPPCPAPELLGGPSVFLFPPKPKDTLMISRTPEVTCVVVDVSHEDPEVKFNWYVDGVEVHNAKTKPREEQYNSTYRVVSVLTVLHQDWLNGKEYKCKVSNKALPAPIEKTISKAKGQPREPQVCTLPPSRDELTKNQVSLWCLVKGFYPSDIAVEWESNGQPENNYKTTPPVLDSDGSFFLYSKLTVDKSRWQQGNVFSCSVMHEALHNRYTQKSLSLSP light: DIVMTQSPLSLPVTPGEPASISCRSSQSLVHSNRNTYLHWYQQKPGQAPRLLIYKVSNRFSGVPDRFSGSGSGTDFTLKISRVEAEDVGVYYCGQGTQVPYTFGQGTKLEIKRTVAAPSVFIFPPSDEQLKSGTASVVCLLNNFYPREAKVQWKVDNALQSGNSQESVTEQDSKDSTYSLSSTLTLSKADYEKHKVYACEVTHQGLSSPVTKSFNRGEC",108
2,"CE115HA000 S77T one-arm antibody (antibody, human IgG1, kappa, L234A L235A, N297A, name in Kabat numbering, one-arm antibody) heavy: QVQLVESGGGVVQPGRSLRLSCAASGFTFSNAWMHWVRQAPGKGLEWVAQIKAKSNNYATYYAESVKGRFTISRDDSKNTLYLQMNSLKTEDTAVYYCRYVHYGAYYGVDAWGQGTTVTVSSASTKGPSVFPLAPSSKSTSGGTAALGCLVKDYFPEPVTVSWNSGALTSGVHTFPAVLQSSGLYSLSSVVTVPSSSLGTQTYICNVNHKPSNTKVDKKVEPKSCDKTHTCPPCPAPEAAGGPSVFLFPPKPKDTLMISRTPEVTCVVVDVSHEDPEVKFNWYVDGVEVHNAKTKPREEQYASTYRVVSVLTVLHQDWLNGKEYKCKVSNKALPAPIEKTISKAKGQPREPQVYTLPPSRCELTKNQVSLSCAVKGFYPSDIAVEWESNGQPENNYKTTPPVLDSDGSFFLVSKLTVDKSRWQQGNVFSCSVMHEALHNHYTQKSLSLSPDYKDDDDK EPKSSDKTHTCPPCPAPELLGGPSVFLFPPKPKDTLMISRTPEVTCVVVDVSHEDPEVKFNWYVDGVEVHNAKTKPREEQYNSTYRVVSVLTVLHQDWLNGKEYKCKVSNKALPAPIEKTISKAKGQPREPQVCTLPPSRDELTKNQVSLWCLVKGFYPSDIAVEWESNGQPENNYKTTPPVLDSDGSFFLYSKLTVDKSRWQQGNVFSCSVMHEALHNRYTQKSLSLSP light: DIVMTQSPLSLPVTPGEPASISCRSSQSLVHSNRNTYLHWYQQKPGQAPRLLIYKVSNRFSGVPDRFSGSGSGTDFTLKISRVEAEDVGVYYCGQGTQVPYTFGQGTKLEIKRTVAAPSVFIFPPSDEQLKSGTASVVCLLNNFYPREAKVQWKVDNALQSGNSQESVTEQDSKDSTYSLSSTLTLSKADYEKHKVYACEVTHQGLSSPVTKSFNRGEC",0.83
3,"CE115HA000 V95A one-arm antibody (antibody, human IgG1, kappa, L234A L235A, N297A, name in Kabat numbering, one-arm antibody) heavy: QVQLVESGGGVVQPGRSLRLSCAASGFTFSNAWMHWVRQAPGKGLEWVAQIKAKSNNYATYYAESVKGRFTISRDDSKNSLYLQMNSLKTEDTAVYYCRYAHYGAYYGVDAWGQGTTVTVSSASTKGPSVFPLAPSSKSTSGGTAALGCLVKDYFPEPVTVSWNSGALTSGVHTFPAVLQSSGLYSLSSVVTVPSSSLGTQTYICNVNHKPSNTKVDKKVEPKSCDKTHTCPPCPAPEAAGGPSVFLFPPKPKDTLMISRTPEVTCVVVDVSHEDPEVKFNWYVDGVEVHNAKTKPREEQYASTYRVVSVLTVLHQDWLNGKEYKCKVSNKALPAPIEKTISKAKGQPREPQVYTLPPSRCELTKNQVSLSCAVKGFYPSDIAVEWESNGQPENNYKTTPPVLDSDGSFFLVSKLTVDKSRWQQGNVFSCSVMHEALHNHYTQKSLSLSPDYKDDDDK EPKSSDKTHTCPPCPAPELLGGPSVFLFPPKPKDTLMISRTPEVTCVVVDVSHEDPEVKFNWYVDGVEVHNAKTKPREEQYNSTYRVVSVLTVLHQDWLNGKEYKCKVSNKALPAPIEKTISKAKGQPREPQVCTLPPSRDELTKNQVSLWCLVKGFYPSDIAVEWESNGQPENNYKTTPPVLDSDGSFFLYSKLTVDKSRWQQGNVFSCSVMHEALHNRYTQKSLSLSP light: DIVMTQSPLSLPVTPGEPASISCRSSQSLVHSNRNTYLHWYQQKPGQAPRLLIYKVSNRFSGVPDRFSGSGSGTDFTLKISRVEAEDVGVYYCGQGTQVPYTFGQGTKLEIKRTVAAPSVFIFPPSDEQLKSGTASVVCLLNNFYPREAKVQWKVDNALQSGNSQESVTEQDSKDSTYSLSSTLTLSKADYEKHKVYACEVTHQGLSSPVTKSFNRGEC",3.15
4,"CE115HA000 V95E one-arm antibody (antibody, human IgG1, kappa, L234A L235A, N297A, name in Kabat numbering, one-arm antibody) heavy: QVQLVESGGGVVQPGRSLRLSCAASGFTFSNAWMHWVRQAPGKGLEWVAQIKAKSNNYATYYAESVKGRFTISRDDSKNSLYLQMNSLKTEDTAVYYCRYEHYGAYYGVDAWGQGTTVTVSSASTKGPSVFPLAPSSKSTSGGTAALGCLVKDYFPEPVTVSWNSGALTSGVHTFPAVLQSSGLYSLSSVVTVPSSSLGTQTYICNVNHKPSNTKVDKKVEPKSCDKTHTCPPCPAPEAAGGPSVFLFPPKPKDTLMISRTPEVTCVVVDVSHEDPEVKFNWYVDGVEVHNAKTKPREEQYASTYRVVSVLTVLHQDWLNGKEYKCKVSNKALPAPIEKTISKAKGQPREPQVYTLPPSRCELTKNQVSLSCAVKGFYPSDIAVEWESNGQPENNYKTTPPVLDSDGSFFLVSKLTVDKSRWQQGNVFSCSVMHEALHNHYTQKSLSLSPDYKDDDDK EPKSSDKTHTCPPCPAPELLGGPSVFLFPPKPKDTLMISRTPEVTCVVVDVSHEDPEVKFNWYVDGVEVHNAKTKPREEQYNSTYRVVSVLTVLHQDWLNGKEYKCKVSNKALPAPIEKTISKAKGQPREPQVCTLPPSRDELTKNQVSLWCLVKGFYPSDIAVEWESNGQPENNYKTTPPVLDSDGSFFLYSKLTVDKSRWQQGNVFSCSVMHEALHNRYTQKSLSLSP light: DIVMTQSPLSLPVTPGEPASISCRSSQSLVHSNRNTYLHWYQQKPGQAPRLLIYKVSNRFSGVPDRFSGSGSGTDFTLKISRVEAEDVGVYYCGQGTQVPYTFGQGTKLEIKRTVAAPSVFIFPPSDEQLKSGTASVVCLLNNFYPREAKVQWKVDNALQSGNSQESVTEQDSKDSTYSLSSTLTLSKADYEKHKVYACEVTHQGLSSPVTKSFNRGEC",50.5

# Second part, the binder after the results:
row,KD ratio (KD value of CE115HA000/KD value of the altered form),Binder
1,0.7,"CE115HA000 S74P one-arm antibody (antibody, human IgG1, kappa, L234A L235A, N297A, name in Kabat numbering, one-arm antibody) heavy: QVQLVESGGGVVQPGRSLRLSCAASGFTFSNAWMHWVRQAPGKGLEWVAQIKAKSNNYATYYAESVKGRFTISRDDPKNSLYLQMNSLKTEDTAVYYCRYVHYGAYYGVDAWGQGTTVTVSSASTKGPSVFPLAPSSKSTSGGTAALGCLVKDYFPEPVTVSWNSGALTSGVHTFPAVLQSSGLYSLSSVVTVPSSSLGTQTYICNVNHKPSNTKVDKKVEPKSCDKTHTCPPCPAPEAAGGPSVFLFPPKPKDTLMISRTPEVTCVVVDVSHEDPEVKFNWYVDGVEVHNAKTKPREEQYASTYRVVSVLTVLHQDWLNGKEYKCKVSNKALPAPIEKTISKAKGQPREPQVYTLPPSRCELTKNQVSLSCAVKGFYPSDIAVEWESNGQPENNYKTTPPVLDSDGSFFLVSKLTVDKSRWQQGNVFSCSVMHEALHNHYTQKSLSLSPDYKDDDDK EPKSSDKTHTCPPCPAPELLGGPSVFLFPPKPKDTLMISRTPEVTCVVVDVSHEDPEVKFNWYVDGVEVHNAKTKPREEQYNSTYRVVSVLTVLHQDWLNGKEYKCKVSNKALPAPIEKTISKAKGQPREPQVCTLPPSRDELTKNQVSLWCLVKGFYPSDIAVEWESNGQPENNYKTTPPVLDSDGSFFLYSKLTVDKSRWQQGNVFSCSVMHEALHNRYTQKSLSLSP light: DIVMTQSPLSLPVTPGEPASISCRSSQSLVHSNRNTYLHWYQQKPGQAPRLLIYKVSNRFSGVPDRFSGSGSGTDFTLKISRVEAEDVGVYYCGQGTQVPYTFGQGTKLEIKRTVAAPSVFIFPPSDEQLKSGTASVVCLLNNFYPREAKVQWKVDNALQSGNSQESVTEQDSKDSTYSLSSTLTLSKADYEKHKVYACEVTHQGLSSPVTKSFNRGEC"
2,78300,"CE115HA000 V95G one-arm antibody (antibody, human IgG1, kappa, L234A L235A, N297A, name in Kabat numbering, one-arm antibody) heavy: QVQLVESGGGVVQPGRSLRLSCAASGFTFSNAWMHWVRQAPGKGLEWVAQIKAKSNNYATYYAESVKGRFTISRDDSKNSLYLQMNSLKTEDTAVYYCRYGHYGAYYGVDAWGQGTTVTVSSASTKGPSVFPLAPSSKSTSGGTAALGCLVKDYFPEPVTVSWNSGALTSGVHTFPAVLQSSGLYSLSSVVTVPSSSLGTQTYICNVNHKPSNTKVDKKVEPKSCDKTHTCPPCPAPEAAGGPSVFLFPPKPKDTLMISRTPEVTCVVVDVSHEDPEVKFNWYVDGVEVHNAKTKPREEQYASTYRVVSVLTVLHQDWLNGKEYKCKVSNKALPAPIEKTISKAKGQPREPQVYTLPPSRCELTKNQVSLSCAVKGFYPSDIAVEWESNGQPENNYKTTPPVLDSDGSFFLVSKLTVDKSRWQQGNVFSCSVMHEALHNHYTQKSLSLSPDYKDDDDK EPKSSDKTHTCPPCPAPELLGGPSVFLFPPKPKDTLMISRTPEVTCVVVDVSHEDPEVKFNWYVDGVEVHNAKTKPREEQYNSTYRVVSVLTVLHQDWLNGKEYKCKVSNKALPAPIEKTISKAKGQPREPQVCTLPPSRDELTKNQVSLWCLVKGFYPSDIAVEWESNGQPENNYKTTPPVLDSDGSFFLYSKLTVDKSRWQQGNVFSCSVMHEALHNRYTQKSLSLSP light: DIVMTQSPLSLPVTPGEPASISCRSSQSLVHSNRNTYLHWYQQKPGQAPRLLIYKVSNRFSGVPDRFSGSGSGTDFTLKISRVEAEDVGVYYCGQGTQVPYTFGQGTKLEIKRTVAAPSVFIFPPSDEQLKSGTASVVCLLNNFYPREAKVQWKVDNALQSGNSQESVTEQDSKDSTYSLSSTLTLSKADYEKHKVYACEVTHQGLSSPVTKSFNRGEC"
